The target of the assay is T1, soluble MET ectodomain (MET928) (human, UniProt P08581 25-932).
T1 construct: MET receptor tyrosine kinase, human, soluble complete ectodomain (MET928)
Put plainly: fluorescence correlation spectroscopy (FCS); in solution; 1 nM InlB-ATTO647N, MET928 titrated from 0.01 nM to 1-2 uM; PBS with 0.05% Tween-20; at least 3 h at room temperature; objective at 20°C; diffusion time fitted to a 1:1 binding model. Particulars: both partners purified.

T1 sequence (P08581 25-932): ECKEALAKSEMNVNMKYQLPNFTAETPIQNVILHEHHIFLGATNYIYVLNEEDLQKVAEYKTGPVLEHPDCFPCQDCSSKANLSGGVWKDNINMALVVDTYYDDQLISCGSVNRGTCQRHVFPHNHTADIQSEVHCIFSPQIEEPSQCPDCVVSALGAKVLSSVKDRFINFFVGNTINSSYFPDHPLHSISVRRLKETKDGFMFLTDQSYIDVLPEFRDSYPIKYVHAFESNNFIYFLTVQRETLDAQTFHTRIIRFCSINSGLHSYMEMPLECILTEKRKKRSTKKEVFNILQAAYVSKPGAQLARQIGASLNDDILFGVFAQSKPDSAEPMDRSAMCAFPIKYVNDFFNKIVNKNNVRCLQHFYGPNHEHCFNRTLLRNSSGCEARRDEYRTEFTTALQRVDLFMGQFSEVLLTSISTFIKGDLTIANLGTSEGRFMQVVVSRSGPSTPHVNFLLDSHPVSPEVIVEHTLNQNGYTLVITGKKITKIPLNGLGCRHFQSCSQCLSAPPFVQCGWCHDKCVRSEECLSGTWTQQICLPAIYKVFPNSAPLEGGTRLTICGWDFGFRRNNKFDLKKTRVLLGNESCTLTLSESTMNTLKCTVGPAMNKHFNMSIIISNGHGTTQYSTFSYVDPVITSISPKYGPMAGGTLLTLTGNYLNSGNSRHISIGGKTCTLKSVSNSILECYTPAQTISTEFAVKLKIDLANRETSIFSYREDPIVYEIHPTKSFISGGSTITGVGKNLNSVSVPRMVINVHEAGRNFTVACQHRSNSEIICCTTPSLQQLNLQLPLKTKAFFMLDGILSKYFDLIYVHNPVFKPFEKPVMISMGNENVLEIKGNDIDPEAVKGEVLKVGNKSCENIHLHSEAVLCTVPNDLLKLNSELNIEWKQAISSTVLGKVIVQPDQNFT

B1: InlB-ATTO647N (InlB321 with C242A and K280C, labelled with ATTO647N at C280) (domain or fragment)
chain: ETITVPTPIKQIFSDDAFAETIKDNLKKKSVTDAVTQNELNSIDQIIANNSDIKSVQGIQYLPNVTKLFLNGNKLTDIKPLANLKNLGWLFLDENKVKDLSSLKDLKKLKSLSLEHNGISDINGLVHLPQLESLYLGNNKITDITVLSRLTKLDTLSLEDNQISDIVPLAGLTKLQNLYLSKNHISDLRALAGLKNLDVLELFSQEALNKPINHQSNLVVPNTVKNTDGSLVTPEIISDDGDYECPNVKWHLPEFTNEVSFIFYQPVTIGKAKARFHGRVTQPLKE
modifications: ATTO647N attached to C280 by maleimide coupling (degree of labeling 0.5)
notes: internalin B (InlB) of Listeria monocytogenes, N-terminal internalin domain, amino acids 36-321 (InlB321); either way residue 280 is cysteine; also called dye-labeled InlB321; internalin domain of InlB
As a reminder, the Kd is the free concentration of one partner at which half of the binding sites on the other are occupied at equilibrium, for simple one-to-one binding. A higher Kd goes with weaker binding. For the molecule B1, the Kd is 5 ± 0.8 nM.

The record behind these values is article PMC3674922, “Single-molecule photobleaching reveals increased MET receptor dimerization upon ligand binding in intact cells” (BMC Biophysics, 2013).
